The results in this text go back to patent publication US20190300897A1 (INSTITUTE OF GENETICS AND DEVELOPMENTAL BIOLOGY CHINESE …, published 2019).

The target in this assay is T1, MBP-DA2 (Arabidopsis, UniProt Q93YV5 1-401).
T1 construct: Used as bacterial lysate and held on amylose resin; also called DA2 expressed as a MBP fusion protein; DA2-MBP
T1 sequence: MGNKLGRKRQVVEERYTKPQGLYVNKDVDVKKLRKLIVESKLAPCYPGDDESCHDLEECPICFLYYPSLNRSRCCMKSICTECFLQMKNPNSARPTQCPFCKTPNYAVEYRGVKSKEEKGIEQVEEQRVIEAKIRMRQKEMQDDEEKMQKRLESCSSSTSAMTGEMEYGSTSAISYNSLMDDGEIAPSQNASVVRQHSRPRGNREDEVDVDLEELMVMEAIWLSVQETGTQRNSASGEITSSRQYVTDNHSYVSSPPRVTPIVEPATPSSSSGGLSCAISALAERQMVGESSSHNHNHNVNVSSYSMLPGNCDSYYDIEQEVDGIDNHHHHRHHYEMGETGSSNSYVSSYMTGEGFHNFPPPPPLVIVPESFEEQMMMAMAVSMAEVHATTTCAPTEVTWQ
As to the kind of experiment: in vitro pull-down on amylose resin, anti-GST immunoblot. As to the method: To test protein-protein interaction, bacterial lysates containing approximately 15 μg of MBP-DA2 fusion proteins were combined with lysates containing approximately 30 μg of GST-DA1, GST-DA1R358K, GST-DA1-UIM, GST-DA1-LIM, GST-DA1-LIM+C or GST-DA1-C fusion proteins. 20 μl amylose resin (New England Biolabs) was added into each combined solution with continued rocking at 4° C. for 1 hour. Beads were washed […] with TGH buffer, and the isolated proteins were separated on a 10% SDS-polyactyamide gel and detected by western blot analysis with anti-GST (Abmart) and anti-MBP antibodies (Abmart), respectively.

B1: GST-DA1-UIM (other)
chain: MGWFNKIFKGSNQRLRVGNNKHNHNVYYDNYPTASHDDEPSAADTDADNDEPHHTQEPSTSEDNTSNDQENEDIDRAIALSLLEENQEQTSISGKYSMPVDEDEQLARALQESMVVGNSPRHKSGSTYDNGNAYGAGDLYGNGHMYGGGNVYANGDIYYPRPITFQMDF
notes: Only the part holding the two UIM domains was in the assay; not shown: glutathione S-transferase (GST) tag from vector pGEX-4T-1
B1: the binding result was “no binding”.

B2: GST-DA1-LIM (other)
chain: RICAGCNMEIGHGRFLNCLNSLWHPECFRCYGCSQPISEYEFSTSGNYPFHKACYRERYHP
notes: Only the LIM domain was in the assay; not shown: glutathione S-transferase (GST) tag from vector pGEX-4T-1
With B2, the binding result was “no binding”.
